# B1: p75 in which alanine was replaced with valine at amino acid 423: p75 with alanine replaced with valine at amino acid 423 in positions 273-427 of SEQ ID NO: 4 (protein, listed as Homo sapiens)
# chain: KRWNSCKQNKQGANSRPVNQTPPPEGEKLHSDSGISVDSQSLHDQQPHTQTASGQALKGDGGLYSSLPPAKREEVEKLLNGSAGDTWRHLAGELGYQPEHIDSFTHEACPVRALLASWATQDSATLDALLAALRRIQRADLVESLCSESTVTSPV
# B2: p75 ICD: intracellular domain (ICD) of p75, GST-fused (protein)
# chain: KRWNSCKQNKQGANSRPVNQTPPPEGEKLHSDSGISVDSQSLHDQQTHTQTASGQALKGDGNLYSSLPLTKREEVEKLLNGDTWRHLAGELGYQPEHIDSFTHEACPVRALLASWGAQDSATLDALLAALRRIQRADIVESLCSESTATSPV
# modifications: left off: a dimerising Fc or GST
# notes: intracellular domain (ICD) of p75, GST-fused
# Legend:
# nerve regeneration = experiment: Similar experiments with modified amino acid agents (Example 2-8)
# Method: Similar experiments were carried out using Pep5 in which alanine was added to the C terminus of the sequence (SEQ ID NO: 2), antibodies for the extracellular domain of p75, and p75 in which alanine was replaced with valine at amino acid 423 in positions 273-427 of SEQ ID NO: 4.
# [1] = tested on: RhoA complexed with Rho GDI; experiment: In vitro nucleotide exchange assay; assay type: biochemical; conditions: high Mg2+ concentrations; 90 nM Dbl
# Method: Lipid-modified RhoA was purified from yeast membranes as described (Forget, M. A., Desrosiers, R. R., Gingras, D. & Beliveau, R., Biochem. J. 361, 243-54(2002)). [^3H]GDP- or GDP-RhoA complexed with Rho GDI was obtained by first incubating GDP-RhoA with or without [^3H]GDP, followed by incubation with Rho GDI for 30 min, as described previously (Takahashi, K. et al., J. Biol. Chem. 272, 23371-23375 (1997)). The sample, subjected to gel filtration, was equilibrated with 20 mM Tris-HCl (pH 7.5) containing 5 mM MgCl2, 1 mM dithiothreitol and 0.1% CHAPS. The GDP dissociation and GTP binding assays were carried out by the filter binding method as described previously (Hart, M. J., Eva, A., Evans, T., Aaronson, S. A. & Cerione, R. A., Nature 354, 311-314 (1991)). In the [^3H]GDP dissociation assay, 50 nM of the complex was incubated for 20 min with various concentrations of GST-fused proteins in a reaction mixture (50 μl) containing 30 mM Tris-HCl (pH 7.5), 5 mM or 0.5 μM MgCl2, 1 (for low Mg) or 10 (for high Mg) mM EDTA, 0.1 mM GTP, 1 mM dithiothreitol, 0.12% CHAPS and 0.2 mg/ml bovine serum albumin. In the [^35S] GTPγS binding assay, the complex was incubated as described above except that 1 μM [^35S] GTPγS was used instead of 0.1 mM GTP. At the indicated time, an aliquot of the reaction sample was removed, and passed through nitrocellulose filters (IPVH 000, Millipore). […]
Molecule,nerve regeneration (nerve regeneration),Dbl stimulated dissociation of GDP from GDP-RhoA complexed with Rho GDI [1]
B1,nerve regeneration was similarly observed,
B2,,showed the inhibitory effect to the same extent as p75 HD

# Source: US20070054848A1, “Composition and method for nerve regeneration” (priority 2003, published 2007)
